B1: B8-IgG1 (antibody, V domains shown)
VH: EVQLVQSGAEVKKPGSSVKVSCKASGGTFSNYGISWVRQAPGQGLEWMGRILPTFGTANSAQKFQGRVTITADESTGTAYMELRSLRSEDTAVYYCAKEGLAFLGYGMDVWGQGTTVTVSS
VL: EIVLTQSPGTLSLSPGERATLSCRASQSVSSYLAWYQQKPGQAPRLLIYDASNRATGIPARFIGSGSGTDFTLTISSLEPEDFAVYFCQQRSNWPLTFGGGTKVEIK
B2: B8-mIgA2 (antibody, V domains shown)
VH: EVQLVQSGAEVKKPGSSVKVSCKASGGTFSNYGISWVRQAPGQGLEWMGRILPTFGTANSAQKFQGRVTITADESTGTAYMELRSLRSEDTAVYYCAKEGLAFLGYGMDVWGQGTTVTVSS
VL: EIVLTQSPGTLSLSPGERATLSCRASQSVSSYLAWYQQKPGQAPRLLIYDASNRATGIPARFIGSGSGTDFTLTISSLEPEDFAVYFCQQRSNWPLTFGGGTKVEIK
B3: B8-dIgA2 (antibody, V domains shown)
VH: EVQLVQSGAEVKKPGSSVKVSCKASGGTFSNYGISWVRQAPGQGLEWMGRILPTFGTANSAQKFQGRVTITADESTGTAYMELRSLRSEDTAVYYCAKEGLAFLGYGMDVWGQGTTVTVSS
VL: EIVLTQSPGTLSLSPGERATLSCRASQSVSSYLAWYQQKPGQAPRLLIYDASNRATGIPARFIGSGSGTDFTLTISSLEPEDFAVYFCQQRSNWPLTFGGGTKVEIK
B4: B8-mIgA1 (antibody, V domains shown)
VH: EVQLVQSGAEVKKPGSSVKVSCKASGGTFSNYGISWVRQAPGQGLEWMGRILPTFGTANSAQKFQGRVTITADESTGTAYMELRSLRSEDTAVYYCAKEGLAFLGYGMDVWGQGTTVTVSS
VL: EIVLTQSPGTLSLSPGERATLSCRASQSVSSYLAWYQQKPGQAPRLLIYDASNRATGIPARFIGSGSGTDFTLTISSLEPEDFAVYFCQQRSNWPLTFGGGTKVEIK
B5: B8-dIgA1 (antibody, V domains shown)
VH: EVQLVQSGAEVKKPGSSVKVSCKASGGTFSNYGISWVRQAPGQGLEWMGRILPTFGTANSAQKFQGRVTITADESTGTAYMELRSLRSEDTAVYYCAKEGLAFLGYGMDVWGQGTTVTVSS
VL: EIVLTQSPGTLSLSPGERATLSCRASQSVSSYLAWYQQKPGQAPRLLIYDASNRATGIPARFIGSGSGTDFTLTISSLEPEDFAVYFCQQRSNWPLTFGGGTKVEIK

Each binder was assayed against recombinant RBD derived from SARS-CoV-2 (Sino Biological) (SARS-CoV-2, ancestral (Wuhan-Hu-1) …, UniProt P0DTC2) (assay: ELISA).
B1: binds.
B2: binds.
B3: binds.
B4: binds.
B5: binds.
